These results are taken from patent US20250297009A1 (BIOTHEUS, published 2025).

In experiment [1] the target is T1, Human PD-1-his protein (human PD-1 extracellular domain with his tag) (human, UniProt Q15116 25-170).
T1 construct: also called PD-1-his antigen; not shown: his tag
The experiment in a line: BLI (ForteBio), antibody loaded on AHQ sensor, 100 nM PD-1-his in solution, monovalent, 1:1 model. The procedure:
(§1) The binding dissociation constant (KD) values of the antibody obtained in Example 1 binding to human and cynomolgus monkey PD-1 were determined by biofilm optical interference technology (ForteBio). Fortebio affinity determination was carried out according to the existing method (Este, P et al. High throughput solution-based measurement of antibody-antigen affinity and epitope binning. Mabs, 2013.5(2): p. 270-8), and the extracellular amino acid sequences of human and cynomolgus monkey PD-1 were as set forth in SEQ ID NO:20 and 21, respectively.
(§2) The sensor loaded with antibody was exposed to 100 nM PD-1-his antigen until the plateau phase, and then the sensor was transferred to the assay buffer for at least 2 minutes for dissociation rate measurement. The kinetic analysis was performed using a 1:1 binding model.
In general terms: Biolayer interferometry detects binding as a change in optical thickness at a sensor tip.

The target in experiment [2] is T2, Cynomolgus monkey PD-1-his protein (cynomolgus monkey PD-1 extracellular domain with his tag) (cynomolgus monkey, UniProt Q15116 25-165 (human entry)).
T2 construct: also called Cyno PD-1-his; not shown: his tag
T2 chain: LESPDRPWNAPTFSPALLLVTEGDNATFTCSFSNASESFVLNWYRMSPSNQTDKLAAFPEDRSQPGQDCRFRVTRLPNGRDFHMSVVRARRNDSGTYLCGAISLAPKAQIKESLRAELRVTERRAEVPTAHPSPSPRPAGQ
The description is as above. The procedure:
as §1, §2

Experiment [3] concerns the target T3, human PD-1 (Uniprot: Q15116) on cells (human, UniProt Q15116 25-288).
T3 construct: whole, on cells; The cell type is named under assay or readout; also called CHO-huPD-1 cells; CHO cells overexpressing human PD-1
The experiment in a line: flow cytometry on CHO cells overexpressing human PD-1, fluorescent secondary antibody. (In general: A flow cytometer gives signals particle by particle.)

Experiment [4] deals with T3, human PD-1 (Uniprot: Q15116) on cells. The experiment in a line: flow cytometry on CHO-S cells overexpressing human PD-1. The source says: (§3) By transfecting human PD-1 (Uniprot: Q15116), cynomolgus monkey PD-1 (Uniprot: BOLAJ3) cDNA pCHO1.0 vector (purchased from Invitrogen) into CHO-S cellsand following with pressure screening, CHO-S cells overexpressing human PD-1 (CHO-huPD-1 cells) and CHO-S cells overexpressing cynomolgus monkey PD-1 (CHO-cynoPD-1 cells) were produced. The overexpressed cells after expansion culture were adjusted to the appropriate cell density and added to a 96-well flow plate, centrifuged and then added with gradiently diluted samples, and incubated at 4° C. for 30 minutes. Washing was performed twice with PBS, fluorescent secondary antibody correspondingly diluted to the appropriate concentration was added, incubated at 4° C. for 30 minutes, and washed twice with PBS. The cells were resuspended in PBS, and detected on a CytoFlex flow cytometer, and the corresponding MFI was calculated. Graphpad software was used for graphical analysis to obtain EC₅₀ values.

The target is the same in experiment [5]. The experiment in a line: flow cytometry, competition with bio-human PD-L1-Fc (0.5 µg/mL) on CHO-huPD-1 cells.
For experiment [6] the target is unchanged. The experiment in a line: flow cytometry blocking assay on CHO cells overexpressing human PD-1; blocked ligand: bio-human PD-L1-Fc, SA-PE detection.
Experiment [7] shares this target. The experiment in a line: flow cytometry on activated human primary T cells, fluorescent secondary antibody.
For experiment [8], the target named is T4, cynomolgus monkey PD-1 (Uniprot: BOLAJ3 as printed) on CHO-S cells (cynomolgus monkey).
T4 construct: whole, on cells; also called CHO-cynoPD-1 cells; CHO cells overexpressing cynomolgus monkey PD-1
The experiment in a line: flow cytometry on CHO cells overexpressing cynomolgus monkey PD-1 according to legend paragraph 157 and Example 11 (the title on the sheet prints CHO-huPD-1), fluorescent secondary antibody.

In experiment [9] the target is T4, cynomolgus monkey PD-1 (Uniprot: BOLAJ3 …). The experiment in a line: flow cytometry on CHO-S cells overexpressing cynomolgus monkey PD-1.
Description: as §3

T3 sequence (Q15116 25-288, one chain of several): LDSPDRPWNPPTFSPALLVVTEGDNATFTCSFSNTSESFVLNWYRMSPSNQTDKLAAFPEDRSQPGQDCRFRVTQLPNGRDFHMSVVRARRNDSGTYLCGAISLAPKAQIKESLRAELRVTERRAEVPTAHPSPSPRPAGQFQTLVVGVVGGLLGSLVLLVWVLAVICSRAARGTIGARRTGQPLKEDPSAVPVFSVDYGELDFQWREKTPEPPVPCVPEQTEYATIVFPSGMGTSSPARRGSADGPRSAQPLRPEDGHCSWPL
T1 sequence (Q15116 25-170): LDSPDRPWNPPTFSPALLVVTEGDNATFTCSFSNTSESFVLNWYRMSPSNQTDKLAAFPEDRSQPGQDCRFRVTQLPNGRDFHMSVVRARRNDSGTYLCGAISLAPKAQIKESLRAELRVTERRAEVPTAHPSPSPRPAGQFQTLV

B1: anti-PD-1 antibody ADI-54872 (antibody, human IgG1, kappa, L234A L235A, V domains shown)
VH: QVQLVQSGAEVKKPGASVKVSCKASGYTFTEYYIYWVRQAPGQGLEWIGGINPSNGGTNFNEKFKPRVTMTVDTSTSTAYMELSSLRSEDTAVYYCTVRDFRFDKGFKYWGQGTLVTVSS
VL: EIVLTQSPATLSLSPGERATLSCRASKSVSTSGLNYVHWYQRKPGQAPRLLIYLGSYLDSGVPARFSGSGSGTDFTLTISSLEPEDFAVYYCQQSWELPLTFGGGTKVEIKR
notes: Full-length IgG (human IgG1 LALA constant region), expressed in HEK293 and purified on Protein A
For orientation: Kd means the free concentration of one partner at which half of the binding sites on the other are occupied at equilibrium, for simple one-to-one binding. Usually EC50 (read off the curve) stands for the midpoint of the concentration-response curve. What is called EC50 is the concentration needed to bring the measured effect to its halfway point. As usually defined, the IC50 is the concentration that gives 50% inhibition. In the case of B1, the Kd in experiment [1] stood at 0.453 nM; in [2] it was 0.201 nM. In addition, the entries for the “EC50 (read off the curve)” value in experiment [3], in experiment [7] and in experiment [8] were roughly 7 nM, roughly 1 nM and roughly 6 nM, respectively. Also, the EC50 in experiment [4] was 3.79 nM; in [9], 4.32 nM. The IC50 in experiment [5] is 3.74 nM. In addition, the “IC50 (read off the curve)” value in experiment [6] is roughly 7 nM.
